Tested on: HAB1^!-2
Experiment: Yeast two hybrid, mandipropamid-promoted interaction of PYR1 variants with HAB1^!-2
Type: cell-based
Excerpt: To engineer orthogonal mandipropamid responsiveness, we introduced the PYR1^! mutation into the PYR1^MANDI receptor to create a septuple mutant called PYR1^!-MANDI (PYR1^Y58H;K59R;V81I;F108A;S122G;F159L;T162D). This mutant interacts with HAB1^! and HAB^!-2 in response to low μM mandipropamid in yeast two-hybrid assays, but is ˜100-fold less sensitive than the PYR1^MANDI/HAB1 interaction, which responds to concentrations in the low nM range (FIG. 3).
To improve sensitivity, we mutagenized ligand contacting and interface residues in PYR1^!-MANDI using NNK primers, pooled the mutant libraries, and used the mutagenized receptors in selection experiments using to identify enhancer mutations. The NNK mutagenesis screen targeted the following residues: P55, H60, F61, I62, K63, V83, S85, G86, L87, P88, A89, S92, E94, I110, H115, R116, L117, Y120, E141, P148, G150, N151, D154, D155, T156, M158, A160, V163, V164, L166, N167, and K170. […] Since M158 and A160 flank the […] mutation present in PYR1^MANDI, we inferred that the closely located orthogonalizing T162D mutation in PYR1^!-MANDI may have reduced mandipropamid sensitivity by altering the local structure of the C-terminal α3-helix, which participates in ligand-induced conformational changes needed for PP2C binding (Nishimura et al., 2009). We therefore simultaneously mutagenized positions M158, F159 and A160 using a primer with degenerate NNK codons at all three positions. F159 was included in this mutagenesis because we have previously observed that multiple substitutions at F159 (A,C,I,L,M,T, or V) are permissive for mandipropamid responsiveness (S. Y. Park et al., n.d.), and sought to test whether residues other than leucine at position 159 might function better in the context of simultaneous changes to both A160 and M158. The mutagenic primer was used in QuickChange mutagenesis reactions using pBD-PYR1^!-MANDI template, and a library of ˜12,000 clones was generated. Plasmid DNA for the library was prepared from pooled E. coli transformants, and subsequently transformed into S. cerevisiae strain MAV99 harboring pACT-HAB1^!-2. ˜20,000 yeast transformants were generated, pooled, and plated onto SD(-Leu,-Trp) agar media supplemented with 0.1% fluorotic acid (to select against mutants that interact in a ligand-independent fashion). The surviving cells were collected and plated onto SD(Leu,-Trp,-Ura) plates supplemented with 50 nM mandipropamid. The colonies displaying the best uracil-independent growth were isolated and retested on different mandipropamid concentrations and then stained in β-galactosidase assays to rank their relative strength.

B1: PYR1*^-MANDI: PYR1 mutant with 9 mutations, most sensitive to mandipropamid (protein, listed as Arabidopsis thaliana)
chain: MPSELTPEERSELKNSIAEFHTYQLDPGSCSSLHAQRIHAPPELVWSIVRRFDKPQTHRHFIKSCSVEQNFEMRVGCTRDIIVISGLPANTSTERLDILDDERRVTGASIIGGEHRLTNYKGVTTVHRFEKENRIWTVVLESYVVDMPEGNSEDDTRIVVDDVVKLNLQKLATVAEAMARNSGDGSGSQVT
FIG. 3, FIG. 4
  mandipropamid concentration to which the interaction responds: nM levels
β-galactosidase assays on different mandipropamid concentrations
  relative mandipropamid sensitivity among selected mutants: most sensitive mutant

Source: patent US10919943B2, “Mutant proteins enabling agrochemical control of plant gene expression” (The Regents of the University of California, priority 2016, dated 2021)
